Measurements published in patent publication US20230093399A1, “METHODS FOR GENERATING PLURIPOTENT STEM CELL-DERIVED BROWN FAT CELLS” (AgeX Therapeutics, Inc., priority 2013, published 2023).

Tests used:
fBAT cells = test: Differentiation of fBAT preadipocyte cells in HyStem beads, Illumina microarray gene expression; assay type: cell-based, human; conditions: 14 days HyStem beads, 50 ng/ml BMP4, FIG. 15 sample 2
Method: Differentiation medium is high glucose DMEM (CellGro Cat. No. 15-013-CV) with Pyruvate, 1 mM (Gibco Cat. 11360), Pen:Strep 100U/ml:100 ug/ml (Gibco Cat. No. 504284), Glutamax 2 mM (Gibco Cat. No. 35050), Dexamethasone 0.1 uM (Sigma, St. Louis, Mo., Cat. No. D1756-100), L-Proline 0.35 mM (Sigma Cat. No. D49752), 2-phospho-L-Ascorbic Acid 0.17 mM (Sigma, Cat. No. 49792, Fluka), and ITS Premix (BD, Franklin Lakes, N.J., sterile Cat. No. 47743-628) with a final concentration 6.25 ug/ml insulin, 6.25 ug/ml transferrin, 6.25 ng/ml selenious acid, serum albumin 1.25 mg/ml, 5.35 ug/ml linoleic acid. In various differentiation conditions, the Differentiation medium is supplemented with various growth factors or other differentiation factors as described herein.
HyStem-C (BioTime, Inc. Alameda, Calif.) is a matrix composed of thiol-modified gelatin and thiolated hyaluronan crosslinked in vivo or in vitro with (polyethylene glycol diacrylate (PEGDA). We observed that clonal human embryonic progenitor cell lines such as those described in the present invention, could be efficiently differentiated in high-density cultures of said crosslinked collagen and hyaluronate in the following manner. HyStem-C® (BioTime, CA, USA) is reconstituted following the manufacturer's instructions. Briefly, the HyStem component (10 mg of thiol-modified hyaluronan) is dissolved in 1.0 ml of degassed deionized water for approximately 20 min to prepare a 1% w/v solution. […] At the desired time point, hydrogel constructs were either fixed and processed for immunohistochemical analysis or lysed using RLT (Qiagen, CA, USA) with 1% beta-mercaptoethanol for total RNA to analyze transcript expression using quantitative real-time PCR (qRT-PCR) and/or whole-genome microarray.
Total RNA was extracted directly from cells growing in 6-well plates or 10 cm tissue culture dishes using Qiagen RNeasy mini kits according to the manufacturer's instructions. […] Values of less than 120 relative fluorescence units (RFUs) were considered as nonspecific background signal. […]

[1] = tested on: Bone marrow-derived mesenchymal stem cells (MSCs); test: Differentiation of bone marrow-derived MSCs in HyStem-C beads, FABP4 expression; assay type: cell-based; conditions: 14 days, 50 ng/mL BMP2, or 10 ng/mL BMP4, or 100 ng/mL BMP7
Method: The Gelin-S® component (10 mg of thiol-modified gelatin (BioTime)) is dissolved in 1.0 ml of degassed deionized water to prepare a 1% w/v solution, and polyethylene glycol diacrylate (10 mg of PEGDA) is dissolved in 0.5 ml of degassed deionized water to prepare a 2% w/v solution. Then, HyStem (1 ml, 1% w/v) is mixed with Gelin-S (1 ml, 1% w/v) immediately before use. Pelleted cells are resuspended in the recently prepared HyStem:Gelin-S (1:1 v/v) mix described above. Upon the addition of the PEGDA cross-linker, the cell suspension, at a final concentration of 2.0×10^7 cells/ml is aliquoted (25 μl/aliquot) into six-well plates (Corning® 3516; VWR, PA, USA) after partial gelation. Following complete gelation (20 min), Differentiation Medium is added to each well. Plates were then placed in a humidified incubator at 37° C. with ambient O2 and 10% CO2, and the cells were fed three-times weekly. At the desired time point, hydrogel constructs were either fixed and processed for immunohistochemical analysis or lysed using RLT (Qiagen, CA, USA) with 1% beta-mercaptoethanol for total RNA to analyze transcript expression using quantitative real-time PCR (qRT-PCR) and/or whole-genome microarray.

B1: BMP4: Bone Morphogenetic Protein 4, TGF-beta superfamily member (protein, UniProt P12644 293-408, looked up)
Bone morphogenetic protein 4: SPKHHSQRARKKNKNCRRHSLYVDFSDVGWNDWIVAPPGYQAFYCHGDCPFPLADHLNSTNHAIVQTLVNSVNSSIPKACCVPTELSAISMLYLDEYDKVVLKNYQEMVVEGCGCR
B1 was tested, and the ADIPOQ expression (fBAT cells) was “markedly up-regulating”, the C19ORF80 expression (fBAT cells) was “markedly up-regulating” and the UCP1 expression (fBAT cells) was “low or undetectable level”. The “differentiation into adipocytes as evidenced by expression of FABP4” value [1] was “caused the differentiation of the cells into adipocytes”.
